For 2 molecules, Kd and cleavage of the hinge peptide after overnight incubation results are on record in article PMC12237041.

In experiment [1] the target is IgA purified from human plasma (human). Put plainly: SEC; Superdex 200 10/300 GL; independent runs of plasma IgA, of inactive IgAse1–7 + E540A and of a preincubated mixture of both.
The target of experiment [2] is T1, synthetic peptide mimicking the IgA1 hinge region, …-NH2 (human).
T1 sequence (peptide, C-terminal amide): VTVPSPVPSTPAR

Some results are limits rather than exact numbers.

B1: IgAse1–7 + E540A (domain or fragment)
chain: MASKPDIKVGDYVKMGVYNNASILWRCVSIDNNGPLMLADKIVDTLAYDAKTNDNSNSKSHSRSYKRDDYGSNYWKDSNMRSWLNSTAAEGKVDWLCGNPPKDGYVSGVGAYNEKAGFLNAFSKSEIAAMKTVTQRSLVSHPEYNKGIVDGDANSDLLYYTDISEAVANYDSSYFETTTEKVFLLDVKQANAVWKNLKGYYVAYNNDGMAWPYWLRTPVTDCNHDMRYISSSGQVGRYAPWYSDLGVRPAFYLDSEYFVTTSGSGSQSSPYIGSAPNKQEDDYTISEPAEDANPDWNVSTEQSIQLTLGPWYSNDGKYSNPTIPVYTIQKTRSDTENMVVVVCGEGYTKSQQGKFINDVKRLWQDAMKYEPYRSYADRFNVYALCTASESTFDNGGSTFFDVIVDKYNSPVISNNLHGSQWKNHIFERCIGPEFIEKIHDAHIKKKCDPNTIPSGSEYEPYYYVHDYIAQFAMVVNTKSDFGGAYNNREYGFHYFISPSDSYRASKTFAHAFGHGLLGLGDEYSNGYLLDDKELKSLNLSSVEDPEKIKWRQLLGFRNTYTCRNAYGSKMLVSSYECIMRDTNYQFCEVCRLQGFKRMSQLVKDVDLYVATPEVKEYTGAYSKPSDFTDLETSSYYNYTYNRNDRLLSGNSKSRFNTNMNGKKIELRTVIQNISDKNARQLKFKMWIKHSDGSVATDSSGNPLQTVQTFDIPVWNDKANFWPLGALDHIKSDFNSGLKSCSLIYQIPSDAQLKSGDTVAFQVLDENGNVLADDNTETQRYTTVSIQYKFEDGSEIPNTAGGTFTVPYGTKLDLTPAKTLYDYEFIKVDGLNKPIVSDGTVVTYYYKNKNEEHTHNLTLVAAKAATCTTAGNSAYYTCDGCDKWFADATGSVEITDKTSVKIPAPGHTAGTEWKSDDTNHWHECTVAGCGVIIESTKSAHTAGEWIVDTPATATTAGTKHKECTVCHRVLETQPIPSTGTELKIIAGDNQIYNKASGSDVTITCNGDFAKFTGIKVDGSVVDSSNYTAVSGSTVLTLKASYLGTLTDGSHTITFVYTDGEANANLTVRTAGSGHIHDYGTEWKSNADNHWHECNCGDKKDEAAHSFKWVVDKEATATKKGSKHEECKICGYKRSAVEI
One may read the Kd as the concentration at which binding is half-saturated. For the molecule B1, the Kd in experiment [1] is greater than 10 µM.

B2: IgAse1–4 (enzyme)
chain: MASKPDIKVGDYVKMGVYNNASILWRCVSIDNNGPLMLADKIVDTLAYDAKTNDNSNSKSHSRSYKRDDYGSNYWKDSNMRSWLNSTAAEGKVDWLCGNPPKDGYVSGVGAYNEKAGFLNAFSKSEIAAMKTVTQRSLVSHPEYNKGIVDGDANSDLLYYTDISEAVANYDSSYFETTTEKVFLLDVKQANAVWKNLKGYYVAYNNDGMAWPYWLRTPVTDCNHDMRYISSSGQVGRYAPWYSDLGVRPAFYLDSEYFVTTSGSGSQSSPYIGSAPNKQEDDYTISEPAEDANPDWNVSTEQSIQLTLGPWYSNDGKYSNPTIPVYTIQKTRSDTENMVVVVCGEGYTKSQQGKFINDVKRLWQDAMKYEPYRSYADRFNVYALCTASESTFDNGGSTFFDVIVDKYNSPVISNNLHGSQWKNHIFERCIGPEFIEKIHDAHIKKKCDPNTIPSGSEYEPYYYVHDYIAQFAMVVNTKSDFGGAYNNREYGFHYFISPSDSYRASKTFAHEFGHGLLGLGDEYSNGYLLDDKELKSLNLSSVEDPEKIKWRQLLGFRNTYTCRNAYGSKMLVSSYECIMRDTNYQFCEVCRLQGFKRMSQLVKDVDLYVATPEVKEYTGAYSKPSDFTDLETSSYYNYTYNRNDRLLSGNSKSRFNTNMNGKKIELRTVIQNISDKNARQLKFKMWIKHSDGSVATDSSGNPLQTVQTFDIPVWNDKANFWPLGALDHIKSDFNSGLKSCSLIYQIPSDAQLKSGDTVAFQVLDENGNVLADDNTETQRYTTVSIQYKFEDGSEIPNTAGGTFTVPYGTKLDLTPAKTLYDYEFIKVDGLNKPIVSDGTVVTYYYKN
Molecule B2 displayed a cleavage of the hinge peptide after overnight incubation at 37 °C, MALDI-TOF mass spectrometry in experiment [2] of less than 1%.
